A word on the stoichiometry N: it is a count of units in the complex or per binding partner.

We go through two molecules from PMC5294574, “Stoichiometry and structure of a lantibiotic maturation complex” (Scientific Reports, 2017).

Data set [1] has as its target NisB (lantibiotic dehydratase) (Lactococcus lactis) (UniProt P20103). Briefly: SEC-MALS; 20 μM NisC or 20 μM NisB incubated with 200 μM unmodified prenisin peptide for 1 h at 25 °C; 50 mM HEPES-NaOH, pH 7.5, 500 mM NaCl.
Data set [2] has as its target NisC (lantibiotic cyclase) (Lactococcus lactis) (UniProt Q03202). The description is as above.
Data set [3] addresses NisB (lantibiotic dehydratase) (Lactococcus lactis) (UniProt P20103). Briefly: SEC-MALS; 20 μM NisB and 200 μM prenisin peptide variant kept constant, NisC varied from 10 μM to 160 μM; 50 mM HEPES-NaOH, pH 7.5, 500 mM NaCl. Background: In gel filtration, larger molecules generally elute earlier.
The target of data set [4] is NisC (lantibiotic cyclase) (Lactococcus lactis) (UniProt Q03202). The description is as above.
Data set [5] concerns the molecule itself. The data set can be described thus: SEC-MALS; isolated NisB or NisC, 200 μL of a 20 μM solution; 50 mM HEPES-NaOH, pH 7.5, 500 mM NaCl.

Chain of NisC (lantibiotic cyclase) (Lactococcus lactis) (Q03202 whole entry): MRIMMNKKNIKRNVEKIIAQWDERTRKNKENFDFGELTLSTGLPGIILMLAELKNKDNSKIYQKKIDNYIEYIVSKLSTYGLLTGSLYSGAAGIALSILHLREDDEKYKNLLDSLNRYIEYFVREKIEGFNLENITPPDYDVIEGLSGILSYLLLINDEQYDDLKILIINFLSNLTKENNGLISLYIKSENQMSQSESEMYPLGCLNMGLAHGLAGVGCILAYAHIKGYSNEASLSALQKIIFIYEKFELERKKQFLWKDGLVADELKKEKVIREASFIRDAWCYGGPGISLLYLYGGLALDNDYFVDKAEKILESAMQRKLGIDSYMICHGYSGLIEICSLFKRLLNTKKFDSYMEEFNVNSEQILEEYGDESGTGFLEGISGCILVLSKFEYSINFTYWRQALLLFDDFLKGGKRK

unmodified prenisin peptide: in data set [1], the stoichiometry N (per NisB dimer) was determined as 1. For the same molecule, the stoichiometry N (per NisC monomer) in data set [2] came out at 1. The molecule further returned a stoichiometry N (prenisin per NisB dimer) in data set [3] of 1. This molecule came in with a stoichiometry N (prenisin per NisC monomer) in data set [4] of 1.

B1: NisB (lantibiotic dehydratase) (enzyme, Lactococcus lactis)
chain: MIKSSFKAQPFLVRNTILCPNDKRSFTEYTQVIETVSKNKVFLEQLLLANPKLYDVMQKYNAGLLKKKRVKKLFESIYKYYKRSYLRSTPFGLFSETSIGVFSKSSQYKLMGKTTKGIRLDTQWLIRLVHKMEVDFSKKLSFTRNNANYKFGDRVFQVYTINSSELEEVNIKYTNVYQIISEFCENDYQKYEDICETVTLCYGDEYRELSEQYLGSLIVNHYLISNLQKDLLSDFSWNTFLTKVEAIDEDKKYIIPLKKVQKFIQEYSEIEIGEGIEKLKEIYQEMSQILENDNYIQIDLISDSEINFDVKQKQQLEHLAEFLGNTTKSVRRTYLDDYKDKFIEKYGVDQEVQITELFDSTFGIGAPYNYNHPRNDFYESEPSTLYYSEEEREKYLSMYVEAVKNHNVINLDDLESHYQKMDLEKKSELQGLELFLNLAKEYEKDIFILGDIVGNNNLGGASGRFSALSPELTSYHRTIVDSVERENENKEITSCEIVFLPENIRHANVMHTSIMRRKVLPFFTSTSHNEVLLTNIYIGIDEKEKFYARDISTQEVLKFYITSMYNKTLFSNELRFLYEISLDDKFGNLPWELIYRDFDYIPRLVFDEIVISPAKWKIWGRDVNSKMTIRELIQSKEIPKEFYIVNGDNKVYLSQKNPLDMEILESAIKKSSKRKDFIELQEYFEDENIINKGEKGRVADVVVPFIRTRALGNEGRAFIREKRVSVERREKLPFNEWLYLKLYISINRQNEFLLSYLPDIQKIVANLGGNLFFLRYTDPKPHIRLRIKCSDLFLAYGSILEILKRSRKNRIMSTFDISIYDQEVERYGGFDTLELSEAIFCADSKIIPNLLTLIKDTNNDWKVDDVSILVNYLYLKCFFQNDNKKILNFLNLVSTKKVKENVNEKIEHYLKLLKVNNLGDQIFYDKNFKELKHAIKNLFLKMIAQDFELQKVYSIIDSIIHVHNNRLIGIERDKEKLIYYTLQRLFVSEEYMK
notes: Nisin dehydratase NisB of Lactococcus lactis; theoretical molecular weight of the dimer 236.6 kDa; Dimer by MALS-SEC and SAXS; also called dehydratase NisB; apo-NisB; source: L. lactis NZ9000, homologously expressed, purified (IMAC, SEC)
With B1, the “stoichiometry N” value in data set [5] amounted to 2.
